For test [1], the target named is T1, PD-L1 on CD47+/PD-L1+ tumor cells (RKO, ES-2, HT-1080, HCC827) (human (endogenous in RKO, ES-2, …, UniProt Q9NZQ7)). As to the kind of experiment: flow cytometry on cells.
Test [2] has as its target T2, PD-L1 on CHO-PD-L1 cells (human, UniProt Q9NZQ7). As to the kind of experiment: flow cytometry on cells.
Test [3] deals with T1, PD-L1 on CD47+/PD-L1+ tumor cells (RKO, …). Nature of the test: flow cytometry on cells. This is another data set of the same source. A general note: A flow cytometer gives signals particle by particle.
Test [4] deals with mFc-tag CD47 antigen (human) (UniProt Q08722). As to the kind of experiment: ELISA. In general terms: ELISA stands for enzyme-linked immunosorbent assay.
Test [5] has as its target T2, PD-L1 on CHO-PD-L1 cells. As to the kind of experiment: flow cytometry on cells. This is another data set of the same source.
Test [6] concerns the target T3, His-tag PD-L1 antigen (Homo sapiens, UniProt Q9NZQ7). Nature of the test: ELISA.
In test [7] the target is mFc-tag CD47 antigen (human) (UniProt Q08722). Nature of the test: BLI. A general note: Biolayer interferometry detects binding as a change in optical thickness at a sensor tip.
Test [8] concerns the target T3, His-tag PD-L1 antigen. Nature of the test: BLI.

Sequence of mFc-tag CD47 antigen (human) (Q08722 19-323): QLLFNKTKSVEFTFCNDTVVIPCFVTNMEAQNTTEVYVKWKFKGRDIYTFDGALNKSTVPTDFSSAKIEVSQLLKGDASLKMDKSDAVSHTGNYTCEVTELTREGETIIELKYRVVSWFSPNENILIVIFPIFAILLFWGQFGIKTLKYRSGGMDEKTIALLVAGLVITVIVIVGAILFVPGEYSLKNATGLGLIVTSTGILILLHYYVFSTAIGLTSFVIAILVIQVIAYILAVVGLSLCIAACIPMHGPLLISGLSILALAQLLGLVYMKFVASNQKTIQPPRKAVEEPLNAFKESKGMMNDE
T3 sequence (Q9NZQ7 19-238): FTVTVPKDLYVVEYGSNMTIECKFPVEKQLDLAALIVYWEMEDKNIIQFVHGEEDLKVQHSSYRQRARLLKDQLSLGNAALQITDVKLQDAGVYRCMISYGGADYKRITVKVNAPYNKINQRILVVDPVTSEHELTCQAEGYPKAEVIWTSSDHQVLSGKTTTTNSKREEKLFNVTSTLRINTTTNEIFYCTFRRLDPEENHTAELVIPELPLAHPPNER
T1 sequence (Q9NZQ7 19-290): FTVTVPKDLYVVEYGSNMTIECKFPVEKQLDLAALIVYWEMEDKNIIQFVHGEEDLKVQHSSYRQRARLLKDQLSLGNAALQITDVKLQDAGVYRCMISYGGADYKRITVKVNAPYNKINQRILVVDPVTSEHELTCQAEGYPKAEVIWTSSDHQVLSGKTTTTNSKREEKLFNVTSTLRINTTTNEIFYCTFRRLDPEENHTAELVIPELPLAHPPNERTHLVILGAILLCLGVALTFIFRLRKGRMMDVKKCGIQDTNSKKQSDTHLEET
T2 sequence (Q9NZQ7 19-290): as above

B1: IMM2520 (bispecific antibody, V domains shown)
VH: QVQLVQSGAEVKKPGASVKVSCKASGYTFTSNWMHWVRQAPGQGLEWMGMIHPNSGSSNYNEKFKSRVTMTRDTSTSTVYMELSSLRSEDTAVYYCARSYYGSSPYYFDYWGQGTLVTVSS
VL: DIQMTQSPSSLSASVGDRVTITCRASQDIINYLNWYQQKPGKAPKLLIYYTSRLHSGVPSRFSGSGSGTDFTFTISSLQPEDIATYYCQQGDTLPWTFGQGTKVEIK
Broadly, the EC50 is the concentration that produces a half-maximal response. Lower therefore signals an effect from little substance. As a reminder, the IC50 is the concentration that inhibits the measured activity by half. Higher therefore signals weaker potency in that assay. The term Kd denotes the equilibrium constant for the complex coming apart. Low values mean higher affinity, high ones lower affinity. Turning to B1, the EC50 worked out at 145 pM in test [1], 845 pM with PD-L1 on CHO-PD-L1 cells [2], 79 pM in test [4] and 456 pM with His-tag PD-L1 antigen [6]. Besides, the results for the IC50 (in test [3]; with PD-L1 on CHO-PD-L1 cells [5]) were 12.3 pM and 121 pM, respectively. Besides, the Kd in test [7] came to 2490 pM; in the test with His-tag PD-L1 antigen [8], 576 pM.

The values are drawn from paper PMC11564011 (Heliyon, 2024).
